Assay results taken from patent US20230250160A1 (HOBER BIOTECH, published 2023).
Read-outs that look alike come from different tables or passages of the source.

T1: myeloid-derived growth factor (human (produced in the Human Secretome …, UniProt Q969H8 32-173, limits assumed))
T1 construct: also called MYDGF; bMYDGF
T1 sequence (looked up): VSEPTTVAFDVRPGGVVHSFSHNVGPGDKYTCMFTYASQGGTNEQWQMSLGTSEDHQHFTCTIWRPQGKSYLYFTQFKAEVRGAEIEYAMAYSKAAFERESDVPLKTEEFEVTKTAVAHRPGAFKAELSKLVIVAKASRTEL


How the values were obtained:
[1] = molecular target: T1, myeloid-derived growth factor; test: SPR Biacore T200, target on CM5 chip, ADAPT injected, 1:1 fit
Method: (§1) Sensor-based binding analysis was performed using a Biacore T200 system (GE Healthcare, Stockholm, Sweden). All analyses were conducted using CM-5 sensor chips coated with the target antigen, another irrelevant antigen and HSA. One surface was left as reference. Binding analysis was performed in PBS-T at 25° C. The ADAPT variants were diluted in PBS-T to 500 nM, 250 nM, 125 nM, 62.5 nM and 31.25 nM. The samples were injected at a flow rate of 30 ul/min for 120 s followed by injection of PBS-T for 240 s to monitor the dissociation. Surfaces were regenerated with 10 mM HCl. Kinetic parameters were determined using the Biacore Insight Evaluation software, assuming a 1:1 binding.
(§2) Variants with sufficient alpha helical structure as well as monomeric elution profiles on the SEC column were further analyzed for binding towards their target protein as well as to HSA. The binding towards the target antigen used in the selection was measured by a multi-cycle analysis using SPR, showing that several binders had affinities in the μM-pM range. […] After target binding had been established, the variants were also evaluated for their ability to simultaneously bind to HSA. This was done either through an SPR capture assay or an experiment where the ADAPT was pre-incubated with saturating conditions of HSA before the binding towards the target was analyzed. […] In total, thirteen of the characterized binders from the selections towards TNFα, PSA, ANG, MYDGF and Insulin could bind both HSA and its target antigen simultaneously. FIG. 5 contains sensorgrams for the thirteen variants in the capture assay.

[2] = molecular target: T2, Human Serum Albumin (human, UniProt P02768 25-609); test: SPR Biacore T200, HSA on CM5 chip, ADAPT injected, 1:1 fit
T2 construct: also called HSA
Method: as §1

[3] = molecular target: T1, myeloid-derived growth factor; test: SPR Biacore T200, target on CM5 chip, ADAPT injected, 1:1 fit; remark: listed apart in the source
Method: as §1

[4] = molecular target: T2, Human Serum Albumin; test: SPR Biacore T200, HSA on CM5 chip, ADAPT injected, 1:1 fit; remark: listed apart in the source
Method: as §1

[5] = molecular target: T3, Human recombinant Insulin (human, UniProt P01308 25-54; P01308 90-110, limits assumed); test: SPR Biacore T200, target on CM5 chip, ADAPT injected, 1:1 fit
T3 construct: also called bInsulin
Method: as §1, §2

[6] = molecular target: T4, Her2 (UniProt P04626 23-652, limits assumed); test: SPR (Biacore), ADAPT injected alone at 31.25-500 nM over immobilised Her2 (irrelevant target)
T4 construct: also called irrelevant target Her2
Method: as §1
Variants with sufficient alpha helical structure as well as monomeric elution profiles on the SEC column were further analyzed for binding towards their target protein as well as to HSA. The binding towards the target antigen used in the selection was measured by a multi-cycle analysis using SPR, showing that several binders had affinities in the μM-pM range. […] After target binding had been established, the variants were also evaluated for their ability to simultaneously bind to HSA. This was done either through an SPR capture assay or an experiment where the ADAPT was pre-incubated with saturating conditions of HSA before the binding towards the target was analyzed. […]

[7] = molecular target: T3, Human recombinant Insulin; test: SPR Biacore T200, target on CM5 chip, ADAPT injected, 1:1 fit; remark: listed apart in the source
Method: as §1

T2 sequence (P02768 25-609 limits assumed): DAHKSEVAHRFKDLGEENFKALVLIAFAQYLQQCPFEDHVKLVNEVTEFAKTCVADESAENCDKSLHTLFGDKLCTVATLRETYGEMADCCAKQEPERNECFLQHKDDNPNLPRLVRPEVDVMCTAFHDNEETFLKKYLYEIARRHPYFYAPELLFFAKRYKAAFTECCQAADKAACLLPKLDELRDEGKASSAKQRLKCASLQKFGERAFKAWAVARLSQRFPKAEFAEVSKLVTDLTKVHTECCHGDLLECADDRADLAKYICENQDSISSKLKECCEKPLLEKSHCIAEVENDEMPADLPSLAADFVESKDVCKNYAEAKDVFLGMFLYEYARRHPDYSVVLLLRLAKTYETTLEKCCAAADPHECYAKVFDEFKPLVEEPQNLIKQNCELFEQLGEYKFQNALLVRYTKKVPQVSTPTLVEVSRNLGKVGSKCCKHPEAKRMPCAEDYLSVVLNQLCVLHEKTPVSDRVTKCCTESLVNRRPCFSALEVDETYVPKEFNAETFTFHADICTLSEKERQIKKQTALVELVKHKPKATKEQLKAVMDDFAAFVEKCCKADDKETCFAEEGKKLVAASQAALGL
T3 sequence (P01308 25-54 limits assumed, chain 1 of 2): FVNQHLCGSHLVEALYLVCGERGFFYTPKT
T3 sequence (P01308 90-110 limits assumed, chain 2 of 2): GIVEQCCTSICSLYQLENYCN

Binder	Kd [1] [nM]	Kd [2] [nM]	Kd [3] [nM]	koff [3] [s⁻¹]	kon [3] [M⁻¹ s⁻¹]	Kd [4] [nM]	koff [4] [s⁻¹]	kon [4] [M⁻¹ s⁻¹]	Kd [5] [nM]	binding result [6]	Kd [7] [nM]	koff [7] [s⁻¹]	kon [7] [M⁻¹ s⁻¹]
LWWAKVWAVAELQKYGVSDFYFKLIDKAKTVEGVEALKLHILAALP (designed binder) [ADAPT variant MYDGF_07]	230	4.7	230	0.082	350000	4.7	0.00014	30000					
LAIAKAYAQYELSFYGVSDFYRELIVKAKTVEGVEALKLHILAALP (designed binder, also called INS_02) [ADAPT variant Insulin_02]		1.5				1.5	0.00093	640000	670	no binding (tested: 500 nM)	670	0.12	180000
LWWAKVSAIKELQAYGVSDFYYMLITKAKTVEGVEALKLHILAALP (designed binder) [ADAPT variant MYDGF_08]	180	12	180	0.18	1e+06	12	0.00028	23000					
